# Measurements published in publication PMC5155159.
# Experiments:
# [1] = biological target: T1, Dicer TN (catalytically inactive), without ectopic TRBP;TRBP full length (D1-D2-D3) (UniProt Q9UPY3+Q15633); assay: single-molecule TIRF, two-color; settings: amine-modified U69 (dye), 20 mM Tris pH 8.0, 200 mM KCl, 0.2 mM EDTA, glucose oxidase/catalase oxygen scavenger, 1 mM Trolox, 200 pM labelled RNA (200 nM in Methods), Mg2+ where …
# [2] = biological target: Dicer TN (catalytically inactive), without ectopic TRBP (UniProt Q9UPY3); assay: single-molecule TIRF competition; settings: 1 uM competitor tRNA; WT or TN form not given; amine-modified U69 (dye); 20 mM Tris pH 8.0, 200 mM KCl, 0.2 mM EDTA, glucose oxidase/catalase oxygen scavenger, 1 mM Trolox; 200 pM labelled RNA (200 nM in Methods); Mg2+ where …
# [3] = biological target: Dicer TN (catalytically inactive), without ectopic TRBP;TRBP D2-D3 (UniProt Q9UPY3+Q15633); assay: single-molecule TIRF competition; settings: 1 uM competitor tRNA; WT or TN form not given; amine-modified U69 (dye); 20 mM Tris pH 8.0, 200 mM KCl, 0.2 mM EDTA, glucose oxidase/catalase oxygen scavenger, 1 mM Trolox; 200 pM labelled RNA (200 nM in Methods); Mg2+ where …
# [4] = biological target: T1, Dicer TN (catalytically inactive), without ectopic TRBP;TRBP full length (D1-D2-D3); assay: single-molecule TIRF competition; settings: 1 uM competitor tRNA; WT or TN form not given; amine-modified U69 (dye); 20 mM Tris pH 8.0, 200 mM KCl, 0.2 mM EDTA, glucose oxidase/catalase oxygen scavenger, 1 mM Trolox; 200 pM labelled RNA (200 nM in Methods); Mg2+ where …
# [5] = biological target: Dicer TN (catalytically inactive), without ectopic TRBP;TRBP D3 (UniProt Q9UPY3+Q15633); assay: single-molecule TIRF competition; settings: 1 uM competitor tRNA; WT or TN form not given; amine-modified U69 (dye); 20 mM Tris pH 8.0, 200 mM KCl, 0.2 mM EDTA, glucose oxidase/catalase oxygen scavenger, 1 mM Trolox; 200 pM labelled RNA (200 nM in Methods); Mg2+ where …
# [6] = biological target: Dicer TN (catalytically inactive), without ectopic TRBP (UniProt Q9UPY3); assay: single-molecule TIRF; settings: amine-modified U69 (dye), 20 mM Tris pH 8.0, 200 mM KCl, 0.2 mM EDTA, glucose oxidase/catalase oxygen scavenger, 1 mM Trolox, 200 pM labelled RNA (200 nM in Methods), Mg2+ where …
# [7] = biological target: T1, Dicer TN (catalytically inactive), without ectopic TRBP;TRBP full length (D1-D2-D3); assay: single-molecule TIRF; settings: amine-modified U69 (dye), 20 mM Tris pH 8.0, 200 mM KCl, 0.2 mM EDTA, glucose oxidase/catalase oxygen scavenger, 1 mM Trolox, 200 pM labelled RNA (200 nM in Methods), Mg2+ where …
# TRBP recombinant = biological target: T2, TRBP recombinant (UniProt Q15633); assay: single-molecule TIRF; settings: amine-modified U69 (dye), 20 mM Tris pH 8.0, 200 mM KCl, 0.2 mM EDTA, glucose oxidase/catalase oxygen scavenger, 1 mM Trolox, 200 pM labelled RNA (200 nM in Methods), Mg2+ where …
# T2 sequence: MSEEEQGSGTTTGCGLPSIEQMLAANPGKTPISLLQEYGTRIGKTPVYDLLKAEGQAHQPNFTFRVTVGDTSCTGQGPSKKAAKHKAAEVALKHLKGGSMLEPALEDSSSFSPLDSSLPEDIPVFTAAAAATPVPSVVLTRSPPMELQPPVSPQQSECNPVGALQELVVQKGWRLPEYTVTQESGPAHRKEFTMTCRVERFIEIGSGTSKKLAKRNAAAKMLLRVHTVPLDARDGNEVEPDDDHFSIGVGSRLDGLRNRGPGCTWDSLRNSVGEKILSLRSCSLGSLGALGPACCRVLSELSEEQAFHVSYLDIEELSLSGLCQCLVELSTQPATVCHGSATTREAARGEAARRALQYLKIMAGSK
# [8] = equivalent IP amount, WT or TN form not given
sequence,measurement,setting,value
UGAGGUAGUAGGUUGUAUAGUUUUAGGGUCACACCCACCACUGGGAGAUAACUAUACAAUCUACUGUCUUUC [pre-let-7a-1 3' 1nt],binding signal (binding events),"[1]; 2.9x fewer than N1, 55.6% long, 25.3 +/- 2.9 s, short 3.7 +/- 0.8 s",2750
UGAGGUAGUAGGUUGUAUAGUUUUAGGGUCACACCCACCACUGGGAGAUAACUAUACAAUCUACUGUCUUUCU [pre-let-7a-1 3' 2nt (standard)],binding signal (binding events),"[1]; with N2 at equal concentration, 57.7% long binding",7410
same,binding signal (s (long dwell time)),"[1]; with N3, 54.7% long, short 1.4 +/- 0.3 s",17
same,binding signal (binding events),"[1]; with N4, long 19.1 s, short 3.0 +/- 1.05 s, 54.0%",8050
same,binding signal (% inhibition of binding),[2],77.9
same,binding signal (% inhibition of binding),[3],29
same,binding signal (% inhibition of binding),[4],6.1
same,binding signal (% inhibition of binding),[5],83
same,binding signal (s (long dwell time)),"[6]; 43.1% long, short 2.8 +/- 0.7 s, 56.9%, panel assignment from figure order",21.9
same,binding signal (bound spots per field),[6]; [8],58
same,binding signal (s (long dwell time)),"[7]; 48.1% long, short 1.5 +/- 0.4 s, 51.9%",13.9
same,binding signal (bound spots per field),[7]; [8],781
same,binding signal (s (dwell time)),TRBP recombinant; 200 pM RNA,120
UGAGGUAGUAGGUUGUAUAGUUUUAGGGUCACACCCACCACUGGGAGAUAACUAUACAAUCUACUGUCUUUCU [pre-let-7a-1 3' 2nt-biotin],binding signal (binding events),[1]; 3'-biotin,2340
same,binding signal (binding events),"[6]; five times more than Dicer-TRBP, 56.7% long, 34.0 +/- 5.6 s, 3'-biotin",1780
same,binding signal (binding events),"[7]; 14.2% long, 27.8 +/- 2.2 s, short 3.7 +/- 1.3 s, 85.8%, 3'-biotin",341
same,binding signal (s (dwell time)),"TRBP recombinant; no noticeable difference from N1, 3'-biotin",120
UGAGGUAGUAGGUUGUAUAGUUUUAGGGUCACACCCACCACUGGGAGAUAACUAUACAAUCUACUGUCUUUCUUUUUUUUUUUUUUUUUUUUUUUUUUUUUUUUUUUUUUUUUUUUUUUUU [pre-let-7a-1 3' U49],binding signal (binding events),"[1]; 2.5x fewer than N1, 31.0% long, 11.0 +/- 2.3 s, short 1.2 +/- 0.2 s",2040
same,binding signal (s (dwell time)),TRBP recombinant; no difference from N1,120
